Measurements as given in patent US20230058316A1, “PEGYLATED IGE-DEPENDENT HISTAMINE-RELEASING FACTOR (HRF)-BINDING PEPTIDE AND USE THEREOF” (EWHA UNIVERSITY - INDUSTRY COLLABORATION FOUNDATION, priority 2020, published 2023).
Where two headings read alike, the source gives them in different places. Where no end group is shown, it is not given here.

Columns and labels:
ovalbumin-specific IgE = assay: Ovalbumin-specific IgE secretion in mouse plasma, ovalbumin-induced bronchial asthma and rhinitis mouse model; format: in vivo; conditions: 1 mg/kg IP
Procedure: (§1) A bronchial asthma and rhinitis animal model was prepared by the following method. An ovalbumin solution was prepared by dissolving ovalbumin in an aluminum hydroxide solution (1 mg/ml) 28 and 14 days before the start of inducing bronchial asthma and rhinitis, and 200 μl of the solution was intraperitoneally injected into each mouse for sensitization. After 14 days of final sensitization, 20 μl of saline/PBS (normal control; NC) or 20 μl of 10 mg/mL ovalbumin solution (positive control; PC) was instilled into the nasal cavity of each lightly anesthetized mouse 4 times every other day for 8 days to induce bronchial asthma and rhinitis.
Ovalbumin is an allergy-causing substance mainly contained in egg whites. […] After completion of the experiment, the mouse was anesthetized by injecting a mixture of zoletil (250 mg/kg) and rompun (50 mg/kg) intraperitoneally, and the chest was opened. 0.8 mL blood was collected by puncture of the heart with a 26 gauge 1 mL syringe coated with heparin. The collected blood was centrifuged at 4° C., 3000 rpm for 10 minutes to obtain plasma components. The amount of ovalbumin-specific IgE in the blood serum obtained through the above process was measured and quantified by enzyme immunosorbent detection method using mouse OVA specific IgE kit (Biolegend, USA).
(§2) Next, in order to confirm whether there is an effect of inhibiting ovalbumin-specific IgE secretion in plasma even when administered in a small number of times, the dTBP2 of Preparative Example 4 and Example 3 was administered to the mouse model of Example 4-1 through intraperitoneal injection once in 4 days for a total of 2 times for 8 days inducing bronchial asthma and rhinitis. The amount of ovalbumin-specific IgE secretion was measured and quantified by the enzyme immunosorbent detection method in the same manner.
(§3) In addition, the dTBP2 of Preparative Example 4 and Example 3 was administered to the mouse model of Example 4-1 through intraperitoneal injection once on the 1st day of 8 days inducing bronchial asthma and rhinitis. The amount of ovalbumin-specific IgE secretion was measured and quantified by the enzyme immunosorbent detection method in the same manner.
The amount of ovalbumin-specific IgE secretion was measured and quantified by the enzyme immunosorbent detection method in the same manner.

[1] = Pharmacokinetic analysis in ICR mice; format: in vivo; conditions: IV, 10 mg/kg
Procedure: The dTBP2 of Preparative Examples 4 and Example 3 was added to a solution prepared in DMSO:PEG400:DW=5:55:40, and this was administered at the concentration of 5 mL/kg. Blood samples were taken at 0.083, 0.25, 0.5, 1, 2, 4, and 8 hours post injection. The blood was centrifuged at 4° C., 3000 rpm for 10 minutes, to which cold acetonitrile containing internal standard was added in an amount 4 times the plasma component, and then deproteinization was carried out. After centrifugation again at 4° C., 13000 rpm for 10 minutes, the supernatant was collected and analyzed by Agilent 6460 LC-MS/MS. Pharmacokinetic analysis was performed with Phoenix WinNonlin (Pharsight ver 6.4, USA) using a non-compartmental analysis model.

[2] = microsomes; for Mouse (%) remaining after reaction: 0.5 h
Procedure: (§4) Upon completion of the reaction, cold acetonitrile containing internal standard was added, and then deproteinization was carried out. The reactant was centrifuged at 4° C., 4000 rpm for 15 minutes, and the supernatant was analyzed by LC-MS/MS. The system was verified with buspirone, a reference material.

IL-13 = IL-13 secretion in bronchoalveolar lavage fluid, ovalbumin-induced bronchial asthma and rhinitis mouse model; format: in vivo; conditions: 1 mg/kg IP
Procedure: as §1
After the end of the experiment, the amount of IL-13 in the supernatant obtained by centrifuging bronchoalveolar lavage fluid was measured and quantified by enzyme immunosorbent detection using mouse IL-13 ELISA kit (R&D system, USA).
as §2, with “inhibiting IL-13” for “inhibiting ovalbumin-specific IgE”, “secretion” for “secretion in plasma”, “of IL-13” for “of ovalbumin-specific IgE secretion”
as §3, with “IL-13” for “ovalbumin-specific IgE secretion”
The amount of IL-13 was measured and quantified by the enzyme immunosorbent detection method in the same manner.

IL-4 = IL-4 secretion in bronchoalveolar lavage fluid, ovalbumin-induced bronchial asthma and rhinitis mouse model; format: in vivo; conditions: 1 mg/kg IP
Procedure: as §1
After the end of the experiment, the amount of IL-4 in the supernatant obtained by centrifuging bronchoalveolar lavage fluid was measured and quantified by enzyme immunosorbent detection using mouse IL-4 ELISA kit (Biolegend, USA).
as §2, with “inhibiting IL-4” for “inhibiting ovalbumin-specific IgE”, “secretion” for “secretion in plasma”, “of IL-4” for “of ovalbumin-specific IgE secretion”
as §3, with “IL-4” for “ovalbumin-specific IgE secretion”
The amount of IL-4 was measured and quantified by the enzyme immunosorbent detection method in the same manner.

[3] = test system: eosinophils in bronchoalveolar lavage fluid; assay: Eosinophil increase in bronchoalveolar lavage fluid, ovalbumin-induced bronchial asthma and rhinitis mouse model; format: in vivo; conditions: 1 mg/kg IP, 8 times daily for 8 days, FIG. 9
Procedure: as §1
After anesthetizing the mouse by injecting a mixture of zoletil (250 mg/kg) and rompun (50 mg/kg) intraperitoneally, a 20-gauge catheter was inserted into the trachea by puncturing the trachea with a knife, and 0.6 mL of PBS at a time was injected-collected three times, and the collection rate was adjusted to 80%. The collected bronchoalveolar lavage fluid was centrifuged at 4° C., 3000 rpm for 10 minutes, and the cell precipitate was resuspended in 0.1 mL of PBS. 20 μL of the suspension was analyzed for the composition of blood cells using a fully automatic hematology analyzer (HEMAVET 950 FS, Drew Scientific, Inc.).

[4] = microsomes; for Human (%) remaining after reaction: 0.5 h
Procedure: as §4

What does the source list for “Example 3: dTBP2 (WYVYPSM) conjugated at the N-terminal with methoxy polyethylene glycol propionaldehyde (10 kDa) ({mPEG propionaldehyde 10 kDa}-WYVYPSM)”?
inhibitory ability on ovalbumin-specific IgE secretion compared with dTBP2 of Preparative Example 4 (ovalbumin-specific IgE; FIGS. 23 and 24): better; inhibiting ovalbumin-specific IgE secretion (ovalbumin-specific IgE; once in 4 days for a total of 2 times (FIG. 23) and once on the 1st day (FIG. 24)): effective; ovalbumin-specific IgE secretion inhibitory effect (ovalbumin-specific IgE; once on the 5th day of 8 days, FIG. 25): inhibitory effect; inhibiting ovalbumin-specific IgE secretion in plasma (in words) (ovalbumin-specific IgE; plasma, 8 times daily for 8 days): very effective; reduction of ovalbumin-specific IgE secretion (ovalbumin-specific IgE; plasma, 8 times daily for 8 days, FIG. 22): about 50%; AUClast [1]: 2830 ng·h/mL; AUC∞ [1]: 3150 ng·h/mL; CL (clearance from plasma) [1]: 54.8 mL/min/kg; T1/2 (half life) [1]: 3.18 h; Vss (steady-state volume of distribution) [1]: 7.37 L/kg; increase of half-life compared to the dTBP2 of Preparative Example 4 [1]: about 1.6 times; initial plasma concentration relative to the dTBP2 of Preparative Example 4 [1]: about 1000 times; stability in plasma ([1]; FIG. 26, versus Preparative Example 4): improved; Mouse (%) remaining after reaction [2]: more than 75%; Mouse (%) remaining after reaction ([2]; pH 7.4): 75.26%; half-life according to the evaluation criteria ([2]; mouse): 1 to 3 h; reduction of IL-13 secretion (IL-13; 8 times daily for 8 days, FIG. 18): about 20%; inhibiting IL-13 secretion (IL-13; once in 4 days for a total of 2 times (FIG. 19) and once on the 1st day (FIG. 20)): effective; IL-13 secretion inhibitory effect (IL-13; once on the 5th day of 8 days, FIG. 21): inhibitory effect; reduction of IL-4 secretion (IL-4; 8 times daily for 8 days, FIG. 14): about 60%; inhibiting IL-4 secretion (IL-4; once in 4 days for a total of 2 times (FIG. 15) and once on the 1st day (FIG. 16)): effective; IL-4 secretion inhibitory effect (IL-4; once on the 5th day of 8 days, FIG. 17): effectively inhibited; reduction of increased eosinophils vs positive control [3]: about 55%; half-life according to the evaluation criteria ([4]; human): 1 to 3 h; Human (%) remaining after reaction [4]: more than 75%; Human (%) remaining after reaction ([4]; pH 7.4): 75.77%
